In assay [1] the target is T1, murine Fibroblast Activation Protein (FAP), expressed in HEK293 cells (mouse, UniProt P97321 1-761).
T1 construct: whole, on cells; Used on transfected HEK293 cells (flow cytometry) and as lysate of those cells coated on plates (ELISA); also called mouse FAP; muFAP
T1 sequence (looked up): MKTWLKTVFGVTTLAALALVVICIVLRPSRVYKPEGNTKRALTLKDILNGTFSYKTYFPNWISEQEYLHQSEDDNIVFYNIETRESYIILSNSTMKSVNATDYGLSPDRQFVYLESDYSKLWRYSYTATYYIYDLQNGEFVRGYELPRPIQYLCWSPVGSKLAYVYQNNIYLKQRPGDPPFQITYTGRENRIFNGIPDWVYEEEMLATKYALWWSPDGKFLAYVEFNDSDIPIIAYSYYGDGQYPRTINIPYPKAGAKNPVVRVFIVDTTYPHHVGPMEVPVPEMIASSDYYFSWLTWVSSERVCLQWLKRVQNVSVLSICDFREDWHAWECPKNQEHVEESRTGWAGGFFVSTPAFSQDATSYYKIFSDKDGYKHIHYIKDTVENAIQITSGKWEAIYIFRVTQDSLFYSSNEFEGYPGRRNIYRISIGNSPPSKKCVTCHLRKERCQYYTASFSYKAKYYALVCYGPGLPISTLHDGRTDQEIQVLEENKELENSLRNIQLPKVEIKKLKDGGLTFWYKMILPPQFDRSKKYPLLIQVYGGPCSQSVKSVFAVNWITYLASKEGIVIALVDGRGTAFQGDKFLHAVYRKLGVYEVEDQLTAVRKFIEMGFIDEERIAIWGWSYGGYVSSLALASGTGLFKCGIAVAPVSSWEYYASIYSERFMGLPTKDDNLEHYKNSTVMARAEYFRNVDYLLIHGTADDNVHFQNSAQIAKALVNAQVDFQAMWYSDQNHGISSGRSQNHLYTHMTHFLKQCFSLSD
Nature of the assay: serial dilutions of Fab on 293 muFAP+ cells.

Assay [2] concerns the target T2, huFAP coated on a surface plasmon resonance chip (human, UniProt Q12884 26-760, limits assumed).
T2 construct: also called human FAP
T2 sequence (looked up): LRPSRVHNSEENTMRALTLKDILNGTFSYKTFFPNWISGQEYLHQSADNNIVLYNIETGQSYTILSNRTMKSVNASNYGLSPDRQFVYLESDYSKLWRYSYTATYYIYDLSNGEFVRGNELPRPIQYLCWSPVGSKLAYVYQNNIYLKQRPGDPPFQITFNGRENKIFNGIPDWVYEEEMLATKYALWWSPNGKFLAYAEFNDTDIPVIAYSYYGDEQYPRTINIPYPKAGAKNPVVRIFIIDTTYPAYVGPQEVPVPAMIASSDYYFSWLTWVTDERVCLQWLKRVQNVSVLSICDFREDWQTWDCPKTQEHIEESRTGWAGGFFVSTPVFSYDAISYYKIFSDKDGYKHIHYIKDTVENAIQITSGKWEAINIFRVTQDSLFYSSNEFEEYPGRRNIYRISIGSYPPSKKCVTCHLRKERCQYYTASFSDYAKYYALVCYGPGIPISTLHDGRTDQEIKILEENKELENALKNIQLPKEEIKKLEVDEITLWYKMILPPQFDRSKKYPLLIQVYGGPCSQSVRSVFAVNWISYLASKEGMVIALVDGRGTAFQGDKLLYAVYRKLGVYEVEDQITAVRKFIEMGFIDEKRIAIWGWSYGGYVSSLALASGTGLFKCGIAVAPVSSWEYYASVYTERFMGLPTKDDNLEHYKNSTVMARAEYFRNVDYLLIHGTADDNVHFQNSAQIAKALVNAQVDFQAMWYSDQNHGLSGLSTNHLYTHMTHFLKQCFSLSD
Nature of the assay: surface plasmon resonance, low-density huFAP coated chip. A general note: In SPR one partner is held on a chip, and binding of the other changes the refractive index at the surface.

Assay [3] has as its target T3, human dipeptidyl peptidase IV (DPPIV, CD26), expressed in HEK293 cells (human, UniProt P27487 1-766).
T3 construct: whole, on cells; Used as lysate of transfected HEK293 cells coated on plates (ELISA), on the cells (flow cytometry screening) and as immunoprecipitate; also called huCD26; HEK293 huCD26+
Nature of the assay: ELISA on cell-lysate-coated plates (HEK293 huCD26+), Fig. 3. On the technique in general: An ELISA detects its analyte on a solid surface through an enzyme-linked reagent.

For assay [4], the target named is T4, human Fibroblast Activation Protein (FAP), expressed in transfected cells (human, UniProt Q12884 1-760).
T4 construct: whole, on cells; Used on transfected HT1080 / HEK293 cells (flow cytometry), as lysates of those cells coated on plates (ELISA) and as immunoprecipitate from their extracts; also called human FAP; huFAP
T4 sequence (looked up): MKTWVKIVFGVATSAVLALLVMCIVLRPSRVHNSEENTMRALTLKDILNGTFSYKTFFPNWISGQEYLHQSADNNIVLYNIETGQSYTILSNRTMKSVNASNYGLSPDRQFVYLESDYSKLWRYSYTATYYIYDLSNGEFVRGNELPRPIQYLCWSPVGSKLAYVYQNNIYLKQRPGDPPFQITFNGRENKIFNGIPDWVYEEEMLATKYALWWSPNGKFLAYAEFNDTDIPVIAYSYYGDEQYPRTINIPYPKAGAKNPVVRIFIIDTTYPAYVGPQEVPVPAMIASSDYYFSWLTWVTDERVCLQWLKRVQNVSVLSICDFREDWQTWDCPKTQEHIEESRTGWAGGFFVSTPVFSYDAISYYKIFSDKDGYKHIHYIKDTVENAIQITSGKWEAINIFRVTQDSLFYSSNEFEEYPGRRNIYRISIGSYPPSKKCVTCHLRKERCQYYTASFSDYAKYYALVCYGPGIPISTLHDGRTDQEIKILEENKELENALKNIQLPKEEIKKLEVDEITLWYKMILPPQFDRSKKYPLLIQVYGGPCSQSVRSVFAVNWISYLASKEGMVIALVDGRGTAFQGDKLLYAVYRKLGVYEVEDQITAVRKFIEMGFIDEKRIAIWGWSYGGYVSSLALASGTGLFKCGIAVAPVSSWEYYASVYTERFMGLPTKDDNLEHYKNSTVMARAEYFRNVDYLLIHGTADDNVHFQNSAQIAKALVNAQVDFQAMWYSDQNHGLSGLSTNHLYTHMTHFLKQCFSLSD
Briefly: binding to antigen expressing cell lines, apparent KD of bivalent IgG.

Positions count from the first letter of the chain named.

T3 sequence (P27487 whole entry): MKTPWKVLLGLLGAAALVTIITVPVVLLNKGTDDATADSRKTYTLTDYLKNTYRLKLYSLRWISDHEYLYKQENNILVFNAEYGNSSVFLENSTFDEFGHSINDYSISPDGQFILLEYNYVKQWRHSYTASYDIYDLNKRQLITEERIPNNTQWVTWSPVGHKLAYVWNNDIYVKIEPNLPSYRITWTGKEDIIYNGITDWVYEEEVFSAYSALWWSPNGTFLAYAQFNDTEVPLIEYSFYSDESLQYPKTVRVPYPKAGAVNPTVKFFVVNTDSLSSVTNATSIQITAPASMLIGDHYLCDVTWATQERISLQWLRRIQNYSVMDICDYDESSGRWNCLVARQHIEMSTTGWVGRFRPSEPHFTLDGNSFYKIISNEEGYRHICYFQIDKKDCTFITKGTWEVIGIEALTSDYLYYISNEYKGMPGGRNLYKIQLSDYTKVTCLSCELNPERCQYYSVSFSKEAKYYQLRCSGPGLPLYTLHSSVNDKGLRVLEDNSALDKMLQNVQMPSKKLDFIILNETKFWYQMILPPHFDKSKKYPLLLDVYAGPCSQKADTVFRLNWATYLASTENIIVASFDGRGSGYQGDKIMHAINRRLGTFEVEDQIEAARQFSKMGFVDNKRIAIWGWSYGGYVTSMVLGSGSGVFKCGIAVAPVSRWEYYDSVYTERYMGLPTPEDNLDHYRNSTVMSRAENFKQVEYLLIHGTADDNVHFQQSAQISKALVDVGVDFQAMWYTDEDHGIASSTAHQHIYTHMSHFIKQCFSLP

B1: Fab ESC11 (Fab, V domains shown)
VH: HVQLQESGPGLVKPSETLSLTCTVSGGSISSNNYYWGWIRQTPGKGLEWIGSIYYSGSTNYNPSLKSRVTISVDTSKNQFSLKLSSVTAADTAVYYCARGARWQARPATRIDGVAFDIWGQGTMVTVSS
VL: ETTLTQSPGTLSLSPGERATLSCRASQTVTRNYLAWYQQKPGQAPRLLMYGASNRAAGVPDRFSGSGSGTDFTLTISRLEPEDFAVYYCQQFGSPYTFGQGTKVEIK
notes: Fully human Fab from a non-immunized phage library, made in E. coli TG-1, with myc tag and His tag
For the molecule B1, the Kd in assay [1] came to 51 nM; in assay [2], 10 nM. In addition, the binding result in assay [3] was “no binding (tested: 100 nM)”.

B2: ESC11 IgG1 (antibody, V domains shown)
VH: B1 VH with H1Q
VL: B1 VL
notes: Variable domains cloned into a full human IgG1 format, made in NS0 cells; also called IgG1 antibody ESC11; ESC11 antibody
Regarding B2, the Kd in assay [4] was around 1 nM.

B3: Fab ESC14 (Fab, V domains shown)
VH: EVQLVQSGAEVKKPGASVKVSCKASGYTFTSYGISWVRQAPGQGLEWMGWISAYNGNTNYAQKLQGRVTMTTDTSTSTAYMELRSLRSDDTAVYYCARDWSRSGYYLPDYWGQGTLVTVSS
VL: DVVMTQSPLSLPVTLGQPASISCRSSQSLLHSNGYNYLDWYLQRPGQSPHLLIFLGSNRASGVPDRFSGSGSGTDFTLKISRVEAEDVGIYYCMQALQTPPTFGQGTKVEIK
notes: as for B1
As to B3, the Kd stood at 251 nM in assay [1] and 210 nM in assay [2]. Also, the binding result in assay [3] is listed as “no binding (tested: 100 nM)”.

B4: ESC14 IgG1 (antibody, V domains shown)
VH: B3 VH
VL: B3 VL
notes: Variable domains cloned into a full human IgG1 format, made in NS0 cells; also called IgG1 antibody ESC14; ESC14 antibody
On to B4, for which, in assay [4], the Kd was around 1 nM.

(Values after patent WO2011040973A2 (dated 2011).)
